The nanobody polyreactivity screen of Harvey et al. (2022)

Experiment: yeast display, Sf9 membrane polyspecificity reagent, FACS + sequencing; frameworks hold sequencing errors
In short: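 A synthetic nanobody library was expressed on Saccharomyces cerevisiae BJ5465 by galactose induction for 36–48 hours. The library was stained for 1 hour at 4 °C with 10% biotinylated, detergent-solubilized Sf9 membrane reagent and enriched with streptavidin microbeads before FACS. Low and high (top ~1%) gates were set on anti-HA fluorescence for expression and streptavidin fluorescence for reagent binding, and each polyreactivity label reflects the gate of origin.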

| Sequence | polyreactivity (PSR sort gate) |
| --- | --- |
| QVQLVESGRGLFQAGGSLRLSCAASGFTFSLYAMGWYRQPPGKERELVAVISYRGGSTYYAYSVKGRFTISRDNAKNTVYLQMNSLKPEVTAVYYCARVVLHFSRYWWPVDYWGQGTQVTVSS | high polyreactivity |
| QVQLVESGGGLVQAGGSLRLSCAASRIIFYAYAMRWYRQAPGNERELVAAMSWSGGSTYYADSVKGRYTISRDNAKNTFYLQMNSLKPEDTAVYYCAAYFNIYGLEYDYWGQGTQVTVSS | high polyreactivity |
| QVQLVESGGGLVQAGGSLRLSCAASGFTFPSYAMGWYRQAPGKERELVAVISWGGTSTYYADSVKGRFTISRDNAKNTVYLQMNSLKPEDTAVYYCATTRRVPGEYWGQGTQVTVSS | high polyreactivity |
| QVQLVESGGGLVQAGGSLRLSCAASGSIFHPYGMGWYRQAPGKERELVAAITSSGGDTYYADSVKGRFTFSRDIAKNTVYLQMISLKPEDTAVYYCAATGLPGYYAYDYWGQGTQVTVSS | low polyreactivity |
| QDQLVDSGGGLVQAGGSLRLSCAASGSIYDPYAMGWYRQAPGKERELVATIDWDDASTYYADSVKGRFTISRDNAKNTVYLQMNSLKPEDTAVYYCATRDRAGYYYWGQGTQVTVSS | high polyreactivity |
| QVQLVESGGGLVQAGGSLRLSCAASGFTFRAYAMGWYRQAPGKERELVAGISGSGGRTYYADSVKGRFTISRDNAKNTVYLQMNSLKPEDTAVYYCAAEYRLYGYQYDYWGQGTQVTVSS | high polyreactivity |
| QVQLVESGGGLVQAGGSLRLSCAASGLIFWHYAMGWYRQAPGKERELVARISYGGGSTYYADSVKGRFTISRDNAKNTVYLQMNSLKPEDTAVYYCNAKYYSVSQYWYNYWGQGTQVTVSS | high polyreactivity |
| QVQLEESGGGLVQAGGSLRLSCAASGGTFAQYVMGWYRQAPGKERELVAAISRTGGRTYYADSVKGRFTISRDNAKNTVYLQMNSLKPEDTAVYYCARVYTSYGTPWTNYDYWGQGTQVTVSS | high polyreactivity |
| QVHLVESGGGLLQAGGSLRLSCAASGTIYGVYAMGWYRQAPEKEGELVAAISWTDGTTYYADSVKGRFTISRDNAKNTVYLQINSLKPEDTAVYYCAAEADVPPYLFGYWGQGTQVTVSS | high polyreactivity |
| QVQLVESGGGLVQAGGSLRLSCAASGRIFRKYAMGWSRQAPGKERELVAAISVGGGSTRYADSVKGRFTISRDNAKNTVYLQMNSLKDEDTAVYYCAADWAYYVASYLYYTFDYWGQGTQVTVSS | low polyreactivity |
| QVQLVESGGGLVQRGCSLRLSCAASGSTFGYYTMGWYRQAPGKERELVSAISYSGGRTFYADSVKGRFTISRDNAKNTVYFQMISLKPEDHAVYYCNTRYIPSYLSHLDYWGQGTQVTVSS | high polyreactivity |
| QVQLVELGGGLVQAGGSLRLSCAASGGTFPRYAMGWYRQAPGKERELVAAITSRGDRTYYADSVKGRFTISRDNAKNTVYLQMNSLKPEDTAVYYCAARLYYSSYGRVKMDYWGQGTQVTVSS | high polyreactivity |
| QVQLVESGGGLVQAGGSLRLSCAASGRTFARYTMGWYRQAPGKERELVASITRGGSTYYADSVKGRFTISRDNAKNTVYVQMNSLKPEDTAVYYCAARFPQHNYWAMDYWGQGTQVTVSS | high polyreactivity |
| QVQLVESGGGLVQAGGSLRLSCAASGFTFPNYDMGWYRQAPGKERELVAAITSGGGRTNYADSVKGRFTISRDNAKNTVYFQMNSLKPEDTSVYFCAKTRVRGSEFGYWGQGTQLTVSS | low polyreactivity |
| QVQLVESGGGLVQAGGSLRLSCAASRRNFGRYAMGWYRQAPGKETELVARISSGGSTHYADSVKGRFTISRDNAMNSVFLQMNSLKPEDTAVYYCAAGWGYWRSYGSWGQGTEVTVSS | high polyreactivity |
| QVQLVESGGGLVQAGGSLRLSCAASGRTFRGYAMGWYRQAPGKERELVAAISSSGGRTYYADSVKGRFTISRDNAKNTVYLQMNSLKPEDTAVYYCAAAVTLSPAQYGYWGQGTQVTVSS | high polyreactivity |
| QVQLVESGGGLVQAGGSLRLSCAASGRTFVSYAMGWYRQAPGKERELVADITIGGSTNYADSVKGRFTISRDNAKNTVYLLMNSLKPEDTAVYDCAAYYSYPWDTVTTVDLYDYWGQGTQVTVSS | low polyreactivity |
| QDQLVESGGGLVQAGGSLRLSCAASGSTIFVYTMGWYRQAPGKERELVAAISGSGGSTSYADSVKGRFTISRDNAKNTVYLQMNSLKPEDTAVYYCAARRHVYLRGSTFEFYYWGQGTQVTVSS | high polyreactivity |
| QVQLVESGGGLVQAGGSLRLSCAASGRTFRSYAMGWSRQAPGKGRELVAAISRSGGTTTYADSVKGRFTISRDNAKNTVYLQMNSLKPEDTAVYYCARGQNRYWQFHGAYDYWGQGTQVTVSS | high polyreactivity |
| QVQLVESGGGLVQAGGSLRLSCAASGSIFYWYAMGWYRQAPGKEREFIADIDWSGGSTYYADSVKGRFTISRDNAKNTVYLQMNSLKPEDTAVYYCAAEARIDIGLYYLDSYYWGQGTQVTVSS | high polyreactivity |
| QVQLVESGGGLVQAGGSLRLSCAASGSIFYFNVMGWYRQAPGKERELVATITWRDASTNYADSVKARFTISRDNAKNTVYLQMNSLKPEDTAVYYCNADSDWGYFDYDYYYWGQGTEVTVSS | low polyreactivity |
| QVQHEESGGGLVQAGGSLRLSCAASGFTFFSNAMGWFRQAPGKERELVAAITTNGGSTYYADSVKGRFTISRDNAKNTVYLQMYSLKPEDTAGYYCAAEYGITDYDYWGQGTQVTVSS | low polyreactivity |

| Sequence | polyreactivity (PSR sort gate) |
| --- | --- |
| QVQLVESGGGLVQAGGSLRLSCAASGFTFVVYAMGWYRQAPGKERELVAAIRRTGGSTYYADSVKGRFTISRDNAKNTVYLQMNSLKPEDTAVYYCAAHAISYQSRYRYRYGSVDYWGQGTQVTVSS | high polyreactivity |
| QVQLVESGGGLVQAGGSLRLSCAASGFTFYNYAMGWYRQAPGKERELVAAITSSGGRTYYADSVKGRFTISRDNAKNTVYLQMNSLKPEDTAVYYCAATGFYLRGEYYYCGQGTQVTVSS | low polyreactivity |
| QVQLVESGGGLVQAGGSLRLSCAASGSTFTTNVMGWYRQAPGKERELVAAISWSSGSTYYADSVKGRFTISRDNAKNTVYLQMNSLKPEDTAVYYCAARLVIFYPYSRYYYWGQGTQVTVSS | high polyreactivity |
| QVQLVESGGGLVQAGGSLRLSCAASGFIFYKYAMGWYRQAPGKEREFVAAITWSGGNTYYADSVKGRFTISRDNAKNTVYLQMNSLKPEDTAVYYCAARDSKWGQGTQVTVSS | low polyreactivity |
| QVQLVESGGGLVQAGGSLRLICDASGRIFRSYAMGWYRQAPGKERELVAAINWRGGSTFYADSVKGRFTISRDNAKNTVYLQMNSLKPEDTAVYYCARRGYRQSGDYWGQGTQVTVSS | low polyreactivity |
| QVQLVESGGGLVQAGGSLRLSCAASGFTFQYYAMGWYRQAPGKERELVAAISWSGGRTYYADSVKGRFTISRDNAKNSVYLQMNSLKPVDTAVYYCAAQWYKWAYNNTLLRYYYWGQGTQVTVSS | high polyreactivity |
| QVQLVESGGGLVQAGGSLRLSCAASGTISASYAMGWYRQATGKERELVAAISSGGDTNYADSVKGRFTISRDNAKNTVYLQMNSLKPEDTAVYYCAADTDSDQGSEYDYWGQGTQVTVSS | low polyreactivity |
| QVQLVESGGGLVQAGGSLRLSCAASGRSFGHYAMGWYRQAPGKERELVAAITTGGNTYYADSVKGRFTISRDNAKNTVYLQMNSLKPEDTAVYYCAKRGYPYKYKYWQVYAAYDYWGQGTQVTVSS | low polyreactivity |
| QVQLVESGGGLVQAGGSLRLSCAASGRIFGNYAMGWYRQAPGKERELVAAISGGGSTYYADSVKGRFTISRDKAKNTVYLQMNSLKPEDTAVYYCAARFLWSVFGRKGGYWGQGTQVTVSS | low polyreactivity |
| QVQLVESGGGLVQAGGSLRLSCAASGFILRIYTMGWYRQAPGKERELVAAINWSGGRTYYADSVKGRFTISRDNAKNTVYLHMNSLKPEDTAVYYCAAVYGVSVSKYYYWGQGTQVTVSS | high polyreactivity |
| QVQLVESGGGLVQAGGSLRLSCAASGRIFIVNAMGWYRQAPGKERELVAAISYRGGSTYYADSVKGRFTISRDNAKNTVYLQMNSLKPEDTAVYYCNTDGYIYRYRFDYWGQGTQVTVSS | low polyreactivity |
| QVQLVESGGGLVQAGGSLRLSCAASGIISAHYAMGWYRQAPGKERELVAAISSSGGSTYYADSVKGRFTISRDNAKNTVYLQMNSLKPEDTAVYYCNAEFYWGYDYWGQGTQVTVSS | low polyreactivity |
| QVHLVESGGGLVQAGRSLPLSCAASGRIFIYNAMGWYRQAPGKERELVAAINRSGVSTHYADSVKGRFTISRDNAKNTVYLQMNSLKPEDTAVYYCARTVYGARSYDYWGQGTQVTVSS | low polyreactivity |
| QVQLVESGGCIVQEGGSLRLSGAASGSTIRGNAMGWYRHAHGQEREFVADITRNGGRTYYADSVKGRFTISRDNAKNTVYLQMNSLKPEDTAVSYCAKRDAYFVSQRNMDYWGQGTQVTVSS | high polyreactivity |
| QVQLVESGGGLVQAGGSLRLSCAASGRIYPVYAMGWYRPAPGKERELVAAITSGVSTNYADSVKGRFTISRDNAKNTVYLQMNSLKPEDTAVYYCNKDYTTYPYYEDGYWGLGTQVTVSS | low polyreactivity |
| QVQLVESGGGLVQAGGSLRLSCAASGRTFSKNVMGWYRQAPGKEREFVARISDSGVGTYYADSVKGRFTISRDNAKNTVYLQMNSLKPEDTAVYYCDKQYGGRYGYWGQGTQVTVSS | low polyreactivity |
| QVQLVESGGGLVQAGGSLRLSCAASGRTFGNYVMGWYRQAPGKERELVAAISRSGGSTYYADSVKGRFTISRDNAKNTVYLQMNSLKPVDTAVYYCNTVTTYEVEYWGQGTQVNVSS | high polyreactivity |
| QVQLVESGGGLVQSRGSLSLICAASGRTYRTYTMGWYRQSPGKERQFVAAIDRTGGSTYYADSVKGRFTISRDNAKNTVYLQMNSLKPEDTAVYYCAATASYIYWGKIYGYDYWGQGTQVTVSS | high polyreactivity |
| QVQLVESGGGLVQAGGSLRFSCAASGRIIEQNAMGWYIQAPGKERELVATITRRGGRTYYADSVKGRFTISRDNAKNTVYLQMNSLKPEDTAVYYCNQVSYARGYDYWGQGTQVTVSS | high polyreactivity |
| QVQLVESGGGLVQAGGSLRLSCAASGRTILVYAMGWYRPAPGKERELVAAISSDGSTNYADSVKGRFTISRDNAMNTVYLQMNSLNPEDTAVYYCARDYYAVSYLYDYWGQGTQVTVSS | low polyreactivity |
| QVQLVESGGGLVQAGGSLRLSCAASGRTFSVYAMGSSRHAPGKERELVAAITESGGSTYYADSVKGRFTISRDNAKITVYLQMNSLKPEDTAVYYCNAGPYYWYVYWGQGTQVTVSS | low polyreactivity |
